Experimental data from patent publication US11833215B2, “CKIT antibody drug conjugates” (Novartis AG, priority 2014, dated 2023).
Entries after “also recorded” stand apart in the source; their conditions may differ.

System: primary human mast cells
Test: mast cell apoptosis (Caspase-Glo 3/7)
Type: cell-based
Details: 0.05-100 nM, 1.6 nM rhSCF, 48 h
Experimental: Primary human mast cells were cultured from peripheral human blood according to the methods described by Saito et al., Nature Protocols 2006; 1(4):2178-2183. Mast cells, which had been in liquid culture for a minimum of one week, were incubated with increasing concentrations (0.05-100 nM) of the anti-human cKIT Abs, NEG085 and 20376, or an isotype control IgG, in the presence of 1.6 nM rhSCF (Genscript, Cat #Z00400, Piscataway, NJ), for 48 h at 37° C. before the addition of the Caspase-Glo® 3/7 reagent (Promega, Cat #G8093, Madison, WI) to measure apoptosis. Following 30 min incubation at room temperature, luminescence was recorded on the BioTek® Synergy plate reader (BioTek, Winooski, VT).

B1: NEG085: anti-cKIT antibody of Table 3, VH SEQ ID NO 82, VL SEQ ID NO 91 (antibody, listed as Homo sapiens, V domains shown)
VH: EVQLVESGGGLVQPGGSLRLSCAASGFAFSGYYMAWVRQAPGKGLEWVANINYPGSSTYYLDSVKGRFTISRDNAKNSLYLQMNSLRAEDTAVYYCARGDYYGTTYWYFDVWGQGTTVTVSS
VL: DIQMTQSPSSLSASVGDRVTITCRASQSISSYLNWYQQKPGKAPKLLIYYTSRLQSGVPSRFSGSGSGTDFTLTISSLQPEDFATYYCQQGRRLWSFGGGTKVEIK
apoptosis of primary human mast cells: do not mediate primary human mast cell apoptosis; also recorded: do not lead to apoptosis
